The compounds below were run against T1, OR7D4 (Homo sapiens, UniProt Q8NG98, D296E/E302K/G299D) (assay: CRE-luciferase assay, HEK cells expressing OR7D4 (wild-type / modified C-terminus)). Conditions: OR7D4 variant, 0.1 μM Androstenone.
T1 construct: Improved functional expression of modified OR-genes containing the truncated, optimized C-terminus; expressed in transfected cells
T1 sequence (Q8NG98 with tags, fused parts or gaps D296E/G299D/E302K): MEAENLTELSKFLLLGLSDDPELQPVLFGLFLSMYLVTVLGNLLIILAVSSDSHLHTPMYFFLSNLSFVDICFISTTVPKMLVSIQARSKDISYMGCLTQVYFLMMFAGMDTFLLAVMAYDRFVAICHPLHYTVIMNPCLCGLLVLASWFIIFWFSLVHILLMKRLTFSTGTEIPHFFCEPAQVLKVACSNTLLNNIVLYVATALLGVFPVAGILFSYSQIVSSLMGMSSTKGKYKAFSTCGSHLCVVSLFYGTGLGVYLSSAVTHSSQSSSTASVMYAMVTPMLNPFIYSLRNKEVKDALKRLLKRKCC
Type: cell-based
Description: Random permutations of the general C-terminal sequence RN[KR][EDQ][VMIL][KR]KA[LIV][KRH][KR][LI][LIF][KRG][KR][KR]CC (SEQ ID NO: 822) linked to OR7D4 were generated based on degenerate oligonucleotides for the C-terminal domain. For this experiment, the MfeI/XhoI fragment from pcDNA3.1(+)-mmLucy-FLAG-rho-OR7D4 containing the CMV promoter and the OR coding sequence was used to replace the EcoRI/SalI fragment of pRDVCCB-CMV-dCas9-VPH-2A-Blast (Cellecta, Inc., Mountain View, USA). Complementary degenerate oligonucleotides were then used to replace the coding region of the C-terminal domain of […] (between Bsu36I and NotI). Random clones were selected, sequenced and tested for a correct open reading frame. A total of 55 clones were obtained with the correct open reading frame of […] and a permutation of the general sequence RN[KR][EDQ][VMIL][KR]KA[LIV][KRH][KR][LI][LIF][KRG][KR][KR]CC (SEQ ID NO: 822) as the C-terminal domain. All the different clones were compared to the wild-type sequence by the functional assay in HEK cells with the ligand Androstenone tested in a dose-response test.

Row | Compound | Fold induction luciferase
1 | SEQ ID NO: 305 (RNKDLKKAVKKLFGRKCC; source 1..18: note = C-terminal domain sequence) | 1.63
2 | SEQ ID NO: 264 (RNKDIKKAVKKLIKKKCC; source 1..18: note = C-terminal domain sequence) | 3.79

Same assay, conditions: OR7D4 variant, 1 μM Androstenone

Row | Compound | Fold induction luciferase
3 | SEQ ID NO: 305 (RNKDLKKAVKKLFGRKCC; source 1..18: note = C-terminal domain sequence) | 10.13
4 | SEQ ID NO: 264 (RNKDIKKAVKKLIKKKCC; source 1..18: note = C-terminal domain sequence) | 23.26

Same assay, conditions: OR7D4 variant, Androstenone

Row | Compound | EC2 (concentration for 2-fold luciferase induction) [µM] | EC2 Fold-improvement vs. wild-type
5 | SEQ ID NO: 303 (RNRDMKKALKKLFRRRCC; source 1..18: note = C-terminal domain sequence) | 0.011 | 150.37
6 | SEQ ID NO: 302 (RNREVRKAVRKLFRRKCC; source 1..18: note = C-terminal domain sequence) | 0.014 | 126.99
7 | SEQ ID NO: 287 (RNREVKKAVKKLIRRKCC; source 1..18: note = C-terminal domain sequence) | 0.012 | 144.06
8 | SEQ ID NO: 267 (RNRDVKKAVRRLFRRKCC; source 1..18: note = C-terminal domain sequence) | 0.006 | 266.97
9 | SEQ ID NO: 305 (RNKDLKKAVKKLFGRKCC; source 1..18: note = C-terminal domain sequence) | 0.131 | 13.15
10 | SEQ ID NO: 258 (RNRDVKKAVHKLFRRKCC; source 1..18: note = C-terminal domain sequence) | 0.011 | 152.59
11 | SEQ ID NO: 290 (RNKDVKKALRRLFGKKCC; source 1..18: note = C-terminal domain sequence) | 0.008 | 225.85
12 | SEQ ID NO: 272 (RNRDLRKALRRIFKRRCC; source 1..18: note = C-terminal domain sequence) | 0.013 | 136.52
13 | SEQ ID NO: 265 (RNRELRKAVRRLFKRRCC; source 1..18: note = C-terminal domain sequence) | 0.022 | 78.45
14 | SEQ ID NO: 293 (RNKELRKAIRRLLRRRCC; source 1..18: note = C-terminal domain sequence) | 0.068 | 25.22
15 | SEQ ID NO: 283 (RNREVKKAVKKLIGKRCC; source 1..18: note = C-terminal domain sequence) | 0.013 | 128.83
16 | SEQ ID NO: 304 (RNRDVRKALKRLLGRRCC; source 1..18: note = C-terminal domain sequence) | 0.006 | 292.59
17 | SEQ ID NO: 298 (RNRDMRKAIRKLFGRKCC; source 1..18: note = C-terminal domain sequence) | 0.011 | 162.22
18 | SEQ ID NO: 264 (RNKDIKKAVKKLIKKKCC; source 1..18: note = C-terminal domain sequence) | 0.048 | 36.01
19 | SEQ ID NO: 271 (RNRDLRKAVRKLFKKKCC; source 1..18: note = C-terminal domain sequence) | 0.030 | 56.86
20 | SEQ ID NO: 292 (RNKDVRKAVKRLLKKRCC; source 1..18: note = C-terminal domain sequence) | 0.018 | 94.88

Further lines, results first:

Row | EC2 (concentration for 2-fold luciferase induction) [µM] | EC2 Fold-improvement vs. wild-type | Compound
21 | 0.034 | 50.55 | SEQ ID NO: 276 (RNRDLRKAVRRIFKKRCC; source 1..18: note = C-terminal domain sequence)
22 | 0.004 | 385.42 | SEQ ID NO: 256 (RNREVRKAVHRLFKRKCC; source 1..18: note = C-terminal domain sequence)
23 | 0.006 | 304.87 | SEQ ID NO: 263 (RNRDVRKAVRRLFRKRCC; source 1..18: note = C-terminal domain sequence)
24 | 0.003 | 522.64 | SEQ ID NO: 278 (RNRDVRKALRRLFKKRCC; source 1..18: note = C-terminal domain sequence)
25 | 0.113 | 15.28 | SEQ ID NO: 291 (RNKELKKAIKRLIRRKCC; source 1..18: note = C-terminal domain sequence)
26 | 0.005 | 373.12 | SEQ ID NO: 273 (RNRDVRKAIKKLIRKRCC; source 1..18: note = C-terminal domain sequence)
27 | 0.011 | 156.27 | SEQ ID NO: 254 (RNREMRKALHRLLGKKCC; source 1..18: note = C-terminal domain sequence)
28 | 0.003 | 545.04 | SEQ ID NO: 286 (RNRDVKKALRKLIGKRCC; source 1..18: note = C-terminal domain sequence)
29 | 0.017 | 103.17 | SEQ ID NO: 306 (RNKDVRKAVRRLFGRRCC; source 1..18: note = C-terminal domain sequence)
30 | 0.010 | 165.32 | SEQ ID NO: 262 (RNKDVRKAVRKLIRRRCC; source 1..18: note = C-terminal domain sequence)
31 | 0.029 | 60.06 | SEQ ID NO: 281 (RNKEIKKAIKKIIKKRCC; source 1..18: note = C-terminal domain sequence)
32 | 0.020 | 87.76 | SEQ ID NO: 300 (RNRDIRKAVKKLFGKKCC; source 1..18: note = C-terminal domain sequence)
33 | 0.014 | 119.65 | SEQ ID NO: 289 (RNKEIRKALRRLFGKKCC; source 1..18: note = C-terminal domain sequence)
34 | 0.005 | 325.72 | SEQ ID NO: 277 (RNRDVRKAVRKLFKRRCC; source 1..18: note = C-terminal domain sequence)
35 | 0.013 | 128.57 | SEQ ID NO: 301 (RNKEVKKAIRKLFGRRCC; source 1..18: note = C-terminal domain sequence)
36 | 0.020 | 84.30 | SEQ ID NO: 259 (RNRDMKKAVHKLFGKRCC; source 1..18: note = C-terminal domain sequence)
37 | 0.098 | 17.53 | SEQ ID NO: 279 (RNKELKKALRKLIGKKCC; source 1..18: note = C-terminal domain sequence)
38 | 0.041 | 41.85 | SEQ ID NO: 266 (RNKELRKAVRKIIKKKCC; source 1..18: note = C-terminal domain sequence)
39 | 0.012 | 145.78 | SEQ ID NO: 270 (RNKDVRKAVRRLIKRKCC; source 1..18: note = C-terminal domain sequence)
40 | 0.005 | 323.20 | SEQ ID NO: 275 (RNRDVRKAIRKLLKRKCC; source 1..18: note = C-terminal domain sequence)
41 | 0.003 | 545.04 | SEQ ID NO: 284 (RNREMRKALRRLFRKRCC; source 1..18: note = C-terminal domain sequence)
42 | 0.003 | 545.04 | SEQ ID NO: 268 (RNREVRKALRRIIRKRCC; source 1..18: note = C-terminal domain sequence)

Same assay, conditions: wild-type vs SEQ ID NO: 86

Row | Compound | activation of OR7D4 variants
43 | C[C@]12CC[C@@H](O)C[C@@H]1CC[C@@H]1[C@@H]2CC[C@]2(C)C=CC[C@@H]12 [androstenol, reference compound] | can only activate the modified version of the receptor

Source: US20260210939A1, “MODIFIED OLFACTORY RECEPTORS” (GIVAUDAN SA, priority 2022, published 2026)
